Laboratory results reported in article PMC12603276.

Target: MORC2 (UniProt Q9Y6X9)
Assay: co-IP of Flag-rPGK1, immunoblot
Conditions: reference: WT Flag-rPGK1; sites S256

## PGK1 (from UniProt P00558) Flag-rPGK1 S256A
  binding against the reference: lost
